Reference: article PMC10786891, “Massively parallel profiling of RNA-targeting CRISPR-Cas13d”
Where a chain is given by its changes, count along the chain named. Numbers in names are those of the source.

B1: target 1 MT 5'PFS AGA 3'PFS ACU (mixed)
RNA 1: CACCCGUGCAAAAAUGCAGGGGUCUAAAACUGAGCGGAUAACCUCUCUAUGG
RNA 2: GGGAAUGGAUCCACAUCUACGAAUUCAGACCAUAGAGAGGUUAUCCGCUCAACUAGAUCGGAAGAGCACACGU
B2: target 1 MT 5'PFS GUU 3'PFS CUG (mixed)
RNA 1: B1 RNA 1
RNA 2: B1 RNA 2 with A27G, G28U, A29U, A52C, C53U, U54G
B3: target 1 MT 5'PFS UCG 3'PFS CGU (mixed)
RNA 1: B1 RNA 1
RNA 2: B1 RNA 2 with A27U, G28C, A29G, A52C, C53G
B4: target 1 MT 5'PFS CAA 3'PFS ACU (mixed)
RNA 1: B1 RNA 1
RNA 2: B1 RNA 2 with A27C, G28A
B5: target 1 MT 5'PFS CCA 3'PFS CUA (mixed)
RNA 1: B1 RNA 1
RNA 2: B1 RNA 2 with A27C, G28C, A52C, C53U, U54A
B6: target 1 MT 5'PFS AGA 3'PFS UCU (mixed)
RNA 1: B1 RNA 1
RNA 2: B1 RNA 2 with A52U
B7: target 1 MT 5'PFS CAA 3'PFS ACG (mixed)
RNA 1: B1 RNA 1
RNA 2: B1 RNA 2 with A27C, G28A, U54G
B8: target 1 insA 3' of 17,insC 3' of 9 (mixed)
RNA 1: B1 RNA 1
RNA 2: GGGAAUGGAUCCACAUCUACGAAUUCGUACCAUAGAAGAGGUUACUCCGCUCACCGAGAUCGGAAGAGCACACGU
B9: target 1 G15C,A16U (mixed)
RNA 1: B1 RNA 1
RNA 2: B1 RNA 2 with A27G, G28U, A36U, G37C, A52C, U54G
B10: target 1 MT 5'PFS GUU 3'PFS CUC (mixed)
RNA 1: B1 RNA 1
RNA 2: B1 RNA 2 with A27G, G28U, A29U, A52C, C53U, U54C
B11: target 1 MT 5'PFS CAA 3'PFS ACA (mixed)
RNA 1: B1 RNA 1
RNA 2: B1 RNA 2 with A27C, G28A, U54A
B12: target 1 MT 5'PFS ACA 3'PFS UAC (mixed)
RNA 1: B1 RNA 1
RNA 2: B1 RNA 2 with G28C, A52U, C53A, U54C
B13: target 1 MT 5'PFS AGA 3'PFS ACG (mixed)
RNA 1: B1 RNA 1
RNA 2: B1 RNA 2 with U54G
B14: target 1 MT 5'PFS GGA 3'PFS CUA (mixed)
RNA 1: B1 RNA 1
RNA 2: B1 RNA 2 with A27G, A52C, C53U, U54A
B15: target 1 MT 5'PFS GUU 3'PFS CUA (mixed)
RNA 1: B1 RNA 1
RNA 2: B1 RNA 2 with A27G, G28U, A29U, A52C, C53U, U54A
B16: target 1 MT 5'PFS GUG 3'PFS GCC (mixed)
RNA 1: B1 RNA 1
RNA 2: B1 RNA 2 with A27G, G28U, A29G, A52G, U54C
B17: target 1 MT 5'PFS CCU 3'PFS AAU (mixed)
RNA 1: B1 RNA 1
RNA 2: B1 RNA 2 with A27C, G28C, A29U, C53A
B18: target 1 MT 5'PFS GUU 3'PFS CUU (mixed)
RNA 1: B1 RNA 1
RNA 2: B1 RNA 2 with A27G, G28U, A29U, A52C, C53U
B19: target 1 MT 5'PFS GGG 3'PFS GCA (mixed)
RNA 1: B1 RNA 1
RNA 2: B1 RNA 2 with A27G, A29G, A52G, U54A
B20: target 1 MT 5'PFS GUG 3'PFS AAG (mixed)
RNA 1: B1 RNA 1
RNA 2: B1 RNA 2 with A27G, G28U, A29G, C53A, U54G
B21: target 1 MT 5'PFS GUG 3'PFS AAA (mixed)
RNA 1: B1 RNA 1
RNA 2: B1 RNA 2 with A27G, G28U, A29G, C53A, U54A
B22: target 1 MT 5'PFS AGA 3'PFS UCA (mixed)
RNA 1: B1 RNA 1
RNA 2: B1 RNA 2 with A52U, U54A
B23: target 1 MT 5'PFS AGA 3'PFS ACC (mixed)
RNA 1: B1 RNA 1
RNA 2: B1 RNA 2 with U54C
B24: target 1 MT 5'PFS CAU 3'PFS CUU (mixed)
RNA 1: B1 RNA 1
RNA 2: B1 RNA 2 with A27C, G28A, A29U, A52C, C53U
B25: target 1 MT 5'PFS GGG 3'PFS GCU (mixed)
RNA 1: B1 RNA 1
RNA 2: B1 RNA 2 with A27G, A29G, A52G
B26: target 1 MT 5'PFS GUG 3'PFS AAU (mixed)
RNA 1: B1 RNA 1
RNA 2: B1 RNA 2 with A27G, G28U, A29G, C53A
B27: target 1 MT 5'PFS AGA 3'PFS UCC (mixed)
RNA 1: B1 RNA 1
RNA 2: B1 RNA 2 with A52U, U54C
B28: target 1 MT 5'PFS UCG 3'PFS AGA (mixed)
RNA 1: B1 RNA 1
RNA 2: B1 RNA 2 with A27U, G28C, A29G, C53G, U54A
B29: target 1 C6U,C7U (mixed)
RNA 1: B1 RNA 1
RNA 2: B1 RNA 2 with A27G, G28U, C45U, C46U, A52C, U54G
B30: target 1 MT 5'PFS GUG 3'PFS GCG (mixed)
RNA 1: B1 RNA 1
RNA 2: B1 RNA 2 with A27G, G28U, A29G, A52G, U54G
B31: target 1 insA 3' of 19,insG 3' of 6 (mixed)
RNA 1: B1 RNA 1
RNA 2: B8 RNA 2 with G35A, A36G, C45U, U46C, C48G
B32: target 1 MT 5'PFS AGA 3'PFS UCG (mixed)
RNA 1: B1 RNA 1
RNA 2: B1 RNA 2 with A52U, U54G
B33: target 1 MT 5'PFS AGA 3'PFS ACA (mixed)
RNA 1: B1 RNA 1
RNA 2: B1 RNA 2 with U54A
B34: target 1 MT 5'PFS UCG 3'PFS AGU (mixed)
RNA 1: B1 RNA 1
RNA 2: B1 RNA 2 with A27U, G28C, A29G, C53G
B35: target 1 MT 5'PFS CAG 3'PFS CGU (mixed)
RNA 1: B1 RNA 1
RNA 2: B1 RNA 2 with A27C, G28A, A29G, A52C, C53G
B36: target 1 MT 5'PFS ACG 3'PFS CAC (mixed)
RNA 1: B1 RNA 1
RNA 2: B1 RNA 2 with G28C, A29G, A52C, C53A, U54C
B37: target 1 MT 5'PFS GUG 3'PFS AAC (mixed)
RNA 1: B1 RNA 1
RNA 2: B1 RNA 2 with A27G, G28U, A29G, C53A, U54C
B38: target 1 C2G,G13C (mixed)
RNA 1: B1 RNA 1
RNA 2: B1 RNA 2 with A27G, G28U, G39C, C50G, A52C, U54G
B39: target 1 MT 5'PFS UGC 3'PFS AAG (mixed)
RNA 1: B1 RNA 1
RNA 2: B1 RNA 2 with A27U, A29C, C53A, U54G
B40: target 1 MT 5'PFS UAA 3'PFS UCG (mixed)
RNA 1: B1 RNA 1
RNA 2: B1 RNA 2 with A27U, G28A, A52U, U54G

Biological target: T1, EsCas13d, nuclease-dead (Eubacterium siraeum, UniProt B0MS50, R295A;H300A;R849A;H854A)
T1 sequence: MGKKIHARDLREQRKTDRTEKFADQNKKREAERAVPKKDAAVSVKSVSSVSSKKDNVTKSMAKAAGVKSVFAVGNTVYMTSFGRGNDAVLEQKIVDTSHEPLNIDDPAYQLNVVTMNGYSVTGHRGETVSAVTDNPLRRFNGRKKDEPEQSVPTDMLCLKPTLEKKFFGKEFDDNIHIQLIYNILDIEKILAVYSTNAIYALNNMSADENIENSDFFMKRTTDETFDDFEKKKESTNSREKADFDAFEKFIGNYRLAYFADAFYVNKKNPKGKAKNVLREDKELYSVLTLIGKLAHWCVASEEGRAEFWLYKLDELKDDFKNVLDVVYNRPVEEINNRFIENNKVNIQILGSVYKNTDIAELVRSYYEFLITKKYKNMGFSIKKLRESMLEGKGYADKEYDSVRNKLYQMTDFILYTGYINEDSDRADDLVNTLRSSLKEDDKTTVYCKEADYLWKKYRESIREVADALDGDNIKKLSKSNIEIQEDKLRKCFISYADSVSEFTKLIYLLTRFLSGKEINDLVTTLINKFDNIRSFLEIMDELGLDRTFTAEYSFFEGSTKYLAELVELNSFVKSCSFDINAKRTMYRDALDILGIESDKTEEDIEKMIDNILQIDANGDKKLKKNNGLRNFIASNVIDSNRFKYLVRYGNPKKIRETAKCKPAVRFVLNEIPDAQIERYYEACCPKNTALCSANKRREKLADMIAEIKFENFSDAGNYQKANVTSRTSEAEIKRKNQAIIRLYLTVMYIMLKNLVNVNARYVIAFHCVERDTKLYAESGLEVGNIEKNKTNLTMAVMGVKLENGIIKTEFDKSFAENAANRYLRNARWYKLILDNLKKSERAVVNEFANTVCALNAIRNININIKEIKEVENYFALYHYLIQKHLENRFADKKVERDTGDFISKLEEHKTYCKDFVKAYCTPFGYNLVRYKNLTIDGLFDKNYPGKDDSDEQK
Assay: crRNA (strand 1, pre-loaded); Mg2+; 40 mM Tris-HCl pH 7.5, 150 mM NaCl, 6 mM MgCl2, 1 mM DTT, 0.1% Tween-20, 0.2 mg/ml BSA; 25 C; 10 min per concentration, then washed
Settings: tags: His6-TwinStrep-SUMO cleaved; N-terminal SNAP kept (SNAP-Surface 488); label: 3' end held by stalled T7 RNA polymerase

Binder | Kd [nM]
B1 | ~32
B2 | 12.8 ± 1.4
B3 | ~100
B4 | ~20.5
B5 | 2.5 ± 0.8
B6 | 42 ± 15.5
B7 | 15 ± 5.5
B8 | 12.3 ± 0.6
B9 | 47 ± 4
B10 | 21.5 ± 4
B11 | ~27
B12 | 25.5 ± 11
B13 | 29.5 ± 7
B14 | 27 ± 6.5
B15 | 17.6 ± 3.25
B16 | 12.7 ± 1.6
B17 | 16.7 ± 4.65
B18 | 16.4 ± 3.1
B19 | 36 ± 13
B20 | 23.1 ± 1.45

Binder | Kd [nM]
B21 | 30.3 ± 2.5
B22 | 61 ± 23
B23 | 47 ± 16
B24 | ~48.5
B25 | 7.45 ± 1.45
B26 | 22.1 ± 1.75
B27 | 49.5 ± 19
B28 | 39 ± 11
B29 | 6.3 ± 0.5
B30 | 14.4 ± 2
B31 | 25.7 ± 2.3
B32 | 47 ± 17.5
B33 | 56 ± 18
B34 | 50 ± 24.5
B35 | 29.5 ± 10
B36 | ~36
B37 | 23.9 ± 2.9
B38 | 47 ± 3.5
B39 | 76 ± 33.5
B40 | 23 ± 6.5
